For 20 sequences, protein production results are on record in a protein production outcome set (Wang et al. 2014).
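Further: failed if final PepcDB status was selected cloned or expressed and not failed if soluble or beyond.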

The series is described as follows: label from the status in PepcDB records.
For the sequence “MIQAQTAAPPHAKVTAILLFTTLMWGGSFLFNKIGMREVPPVHFFFFRFALAALLMGGVCLPRLARLNRHIAVRGAVVGLALAAVNLTFVLGVSGTTISRAGYLNNLFVLFIPLLTFALWRERVDRVTFGGIALAVVGLWALASGGAEGFNQGDLLSTVCALFIAIHIIAVSRVLRDEDVYLVTFVQFVTVAAVGLVLCLVLPWPEFTIGRAGAWSLAYCALFPTVICFTLQNAYQRFTTPTRAGLIYTLDPVWSMLFGVFILGERLTPRELAGCVLILMAVAGPLLARLYLEQRHRRLYRLDGAEGT”, the protein production result is reported as “failed”.

For “MEPCSSDEFFQALNHAEQTFKKMENYLRHKQLCDVILVAGDRRIPAHRLVLSSVSDYFAAMFTNDVREARQEEIKMEGVEPNSLWSLIQYAYTGRLELKEDNIECLLSTACLLQLSQVVEACCKFLMKQLHPSNCLGIRSFADAQGCTDLHKVAHNYTMEHFMEVIRNQEFVLLPANEIAKLLASDDMNIPNEETILNALLTWVRHDLEQRRKDLSRLLAYIRLPLLAPQAPGLELSSPDLHSKDLAHSAISSTPK”, the protein production entry is on record as “failed”.

Take “MFKVTFAFENGSEVEAFANAGDNLLEVARGANVAIDAPCSGNGACGKCRVQLKGGELDSKKTLHISDEEFEKGWRLACMSKICADVEVLVPDIASAYKSRMKVA”: the protein production result was “failed”.

On to “MLMVFALLVSLAFASYHPDDAVVLRSADWSEVVLNPQSAQADGPVQNVLGLLGAQLAEACVPGFIGYGVLLISGLLMVWGYAVFRHASLRRLLYPSLLTAFSAFILSCVVGWVHHTVDAPLRAWAGLVGIGTAGWMQNVFGEVGSFILLLLAGAVLLLLVVDHDIQRTVDRVIRAARRIGAGVSAAGAYIRDQWSRARAHAPEPKATSPASDPSSSASASGSPSASSPEPPSSPPAEESTSSPPPARTRPEDSGAQTPSVRRNDLFRPGRDPAPSATDDNTASPEPAPDSSARTSDADPPEDDAPKDIPDETTASTPAEESPATDSPPPSRPADENASSDEPAAPAPDEPPPDASDGPDDDVSMTIQEQVEEETTDEIERTAELPDDFEYEPPSLDLLDESVDTDPTINREELEENKRVLLDKLDMYNIEIEEINAVVGPTVTRYELTPAPGIKVSRIKSLEDDLAMAMAAPGIRMIAPIPGKSAVGVEIPNRNRELVRLRDVIGTRKFQDTDLKLPLPLGKNIEGEVHVGDLATMPHLLIAGATGSGKSVGLNSIITGLIYACHPANLRFVIIDPKKIELQQYTALETQFVAVPEDIDQTVITDIDEASGVLKSVEREMETRYDLLSDASVRNITGYNEKFQAGELDPTEGHRHMPYLVVVVDELADLMMAAGDDVEGPISRLAQMARAVGIHLILATQRPSVDVVTGVIKANFPSRIAFEVASRVDSRTILDQGGAEDLVGNGDMLFLSGSDLKRLQGPFVSVEEVEEVVDYVADQPGVTPYTLPSLQDAGHGPDETLGVEDTDEKFEEAARVIVRRQQGSVSLLQRKLAVGYTRAARIVDQLEEAGIVGPFNGTKARDVLVDDEQALDDLLHGEDADEADPEEA”, for which the protein production entry is “failed”.

As for “MQYSSFGEKFNRYSGITQLMDDLNDGLRTPGAIMLGGGNPAAIPAMLDYFHNTSAEMLADGSLLNAMTNYDGPQGKDVFVKSLATLLRETYGWNISEKNITLTNGSQSGFFYLFNLFAGKQPDGAHKKILLPLAPEYIGYGDAGIDDDIFVSYRPEIELLDQGLFKYHVDFSELKVDESVAAICVSRPTNPTGNVLTEEEIHKLDQLARDNGVPLIIDNAYGVPFPNIIFEDIEPFWNDNTILCMSLSKLGLPGLRCGIVIANEAVTQALTNMNGIISLAPGSMGPALVQRMIEKGDLLRLSEQVIKPFYRQKAQHAVELLQSAITDPRFRIHKPEGAIFLWLWFDELPITTMELYQRLKARGVLIVPGEYFFIGQPQEWPHAHECLRMNYVQNEQAMEQGIAIIAEEVQKAYQQANV”, the protein production result is “failed”.

Take “MHNSIMNKVAVIGLGNIATRHRRNLKSLFPNVELLVMSASGRIPTEEISDSDGIVTSIEALIEANVELVIVASPAPFHAQHSIPLIEAGIPTLIEKPVTTTREDANAIKKALNEHGTPVAIGYCLRYLPSAQKLKILLDHKAIGTLYNAHIEIGQYLPDWRPSKNYRECVSANEKLGGGALFELSHELDYAQWLLGPLALQHAILRSSDELDLQVEDMADILTLTESGAVASIHLDFLQRKAHRQCSFIGSEGRIDWDLIQNQLTLTTAAEAKVIYSEPEWDKNQMYLAMVTDFIQMIKQQPHNCIAVTDASFTVDLISQIKQKAY”: the protein production result was “failed”.

Regarding “MTFLPTSLKFFSSLSRASGAVWTEATKRKAPHKPLLLLAVLDLVHRGVITTPFIAVSGDLVELNELFNLYWRRIIPLGQTSSIAFPFSRLAREPFWELVPQPGKNITDAVINNTSSVSYLRKYALGAKLDDGLFRVMASGEGREALREALLLSCFSPEASAQLREQSIINREAFDYSRLLEEQAHLPLVKEIVEADNYRPTVRDQAFRKVVTSAYDHRCALCGIRIVTPDGHTVVEAAHIVPWSRSQNDDIRNGMALCRTCHWGFDEGMLGVSDNYTVITSRSIGIDPNFPGLLQTLSGRGIIPPADPDKFPAREYLAEHRRAWRL”, the protein production result is “failed”.

Turning to “MLVMIDTKRPPVYIDSQVGLNTFFLIRGRYPSLNLFVSFITTVKTLGNNVSRTHGDDAESDRVSNVDENNEAVDEQDNIEDDKTDEDEKEGDNEDGDGYDDYQGDDESMGGSTLDPTIDGSESSDEDCDYNKWNDVIVEEYGMLRRTSFSHQGNSVVCWQSVRTQVSVYLTEITFLTRVTVHQL”, the protein production entry is given as “failed”.

Regarding “MPEFTNNPVAECDTVFSEKDGKKIVDFIIYPAKNGDQWVGTAVEAKSMGFGGELKVLVGFDAEGKIYNYSLLSHAETPGLGSKAADWFKEGNKGSIKGMNPGEQPLTVSKDGGQVDAITASTITSRAFLNAVNAAYGAYKGDGGANGTTGASQKAVQKSETAIVDSVVIKLEHHHHHH”, the protein production result was “not failed”.

For “MLQMRTDLMAVACGRRSADLYIENGRVLNVHSGEILSGVGVAVASGRVAYVGPSRGMIGPETQFLDAEGGILVPGYVDPHAHFDNILSPRRLAEALLPLGTTMVVNDTLAVVARFGAPGLACLRAAATSLPLHFGWTVPISGWAPELEEAGYFAGLGLTDAELDVLLADETVLGTSEFLPWRRLLAGDQRLIARLDIARRHGKCCEGHNPGARADHLQVIAAAGLTDCHEALTSAEALNRLRAGLYVVLRHGPARYDLPELASLVMKEGVDRSRLMLTPDWVPPNDLAAFGHMDHPLSAAMEAGIPPLDAYRMASLNPARYFRIEGQIGSIAPGRYADILCLNDLREPRPKWVMAQGAVVARNGVPTPDWHGLDELELPAYRPSVLHASPADFRVASAGTGDVLVPAIEIMDRTVTRRIDLHLPVKDGVVSCAGEEGRVMKMAMPHPEGGFSIGFLVGVGGCLGAMSNSLASEPYHTLVIGTSDDDMAIAYNRMIELGGGVVTVQDGRIEAQLPLPLGGFMTKASAADVGAGIDAVNQWARNNGSNLENAFLTQHFLTYVGVPFFRMTPWGIYDVRKHCFLPPILNQGSEEDAL”, the protein production result is on record as “failed”.

On to “MPSSILSESMIQAFFWSLITIGMYFITQKLYRRWPFWWLMPLALTPILVASVVLLLHVNYQDYFRGTKWLVLLIGPATVAFAIPIYEKRALIRQHWPVLLIGVIVGSFTAIASSWGLAILLGLDDNLRLSLLPRSISTPFAIEISRGIGAAPDLTAIFVIVTGILGAILGEFILSRLPFNSALARGALLGVGAHAAGTAQAHKIGNTEGAIASLAMILVGLFNILLLPLISYLLK”, for which the protein production result is listed as “failed”.

Take “MNFGTQIKMIRKENQLTQEQFGNQLNISRQTVSTWENNRYLPDIEMLVEIAKTFNLSLDDLILGNSVVKDKLVNDTKFVKRIRLSILSMIFILIAIVSALLFTSLPSHVSQDGVLQEPWFLVILAFFSLLTGLIIGMVNLVLIFINYYKYARRRK”: the protein production entry is reported as “failed”.

Consider “MPCCSHRRCREDPGTSESQEMEEWALLDISQRKLYKEVMLETFRNLTSVGKSWKDQNIEYEYQNPRRNFRSLIEKKVNEIKDDSHCGETFTQVPDDRLNFQEKKASPEIKSCDSFVCGEVGLGNSSFNMNIRGDIGHKAYEYQEYGPKP”, for which the protein production entry is “failed”.

“MAKLRVGIVFGGKSAEHEVSLQSAKNIVDAIDKTRFDVVLLGIDKAGQWHVNDAENYLQNADDPAHIALRPSAISLAQVPGKHQHQLINAQNGQPLPTVDVIFPIVHGTLGEDGSLQGMLRVANLPFVGSDVLSSAACMDKDVAKRLLRDAGLNIAPFITLTRTNRHAFSFAEVESRLGLPLFVKPANQGSSVGVSKVANEAQYQQAVALAFEFDHKVVVEQGIKGREIECAVLGNDNPQASTCGEIVLNSEFYAYDTKYIDDNGAQVVVPAQIPSEVNDKIRAIAIQAYQTLGCAGMARVDVFLTADNEVVINEINTLPGFTNISMYPKLWQASGLGYTDLISRLIELALERHTANNALKTTM”: the protein production result is reported as “not failed”.

“MAGAITLACTIRFEANAEHVYLSSGTKQTVYHYPFPMSTIHITLNGERKEVPAGSTVSELLVIADADRQPVAVVVNEHIVRPDQRDSYILQERDQVEILVFAGGGLEHHHHHH”: the protein production result is on record as “not failed”.

Take “MENTLSFKKQGYWLFSSAIIIGVLFLLLPHIISNIGVLEFIGAFFNALCMGVIAFIILKAEFLDWFKHFSFKWIIIGAPALIIISSIFNIAWAYFAGSTTENGINSVLTWTYVFTSIPFMLLGEELLSISLLYAAWKKWNWKFWQASLLCSLLFATWHLTSYDFNFLQCIITLAPARLILNYLFKKTNSVWVTFIVHFIFDFIAFLPILLK”: the protein production result was “failed”.

For “MNETEFYAYHIVTRKKMHIGQMIPFNKNQHNTLYHFFFEREQLNANGEDGIQILNNHYKNDELHINNENAKVVISYMDQTIRAARETIVEMVRLQEFPEYPSRLSCLYAAKSYEDALKWKALFDSYNREVLQIVKLRVIGSSFEGDGNLLPKEDGIPFSQKIEQARKYWKGNIRNELPELLINGEIEVVEIIDDFSSIHI”, the protein production result is “not failed”.

For “MRTYLVLFSILLVFLAGCISTESKVEDTTTAVTFVSVTDFTGETSTINSPVERVVSNYGLIPPIIYLFGEGDKIVAGRGVMGADEFIDAVDPEFKTRSKDIKSDNVEEIKSLNPDVIFAPSWGSQQGQYPQLKSLGIPVVFIDIETASNYYKTIEMMGEVFQKEAYAQELIDYYNQSTNDVLKRTASISENEKPRVLFLVYDQRKNSYWTPGGEFYQNNLITMAGGKTVSSDLPTGKAQINVEQAASWNPDVIITSAHTMEYPSTKVKEDVLTDEGWKEINAVKSGNVYAMPFDGESWDTLGSKYVLGLYWTAKTLHPDMYTDVDILNLTSSEYERFFNVSIDEVTLVGDNIE”, the protein production result is listed as “failed”.

Turning to “VKSIFEIDIEKLADSGVKGIITDLDNTLVGWDVKEPTKGVKSWFAKAKDLGITVTIVSNNNKSRVSSFSSNLGVDYIFKARKPMGKAFKMAIKKMKIQPRETVVVGDQMLTDVFGGNCNGLYTIMVVPVKRTDGLITKFN”, the protein production entry is reported as “not failed”.

“MAMLQTNLGFITSPTFLCPKLKVKLNSYLWFSYRSQGNFSYSLYTFKPMNLWFVQKLDFSKRVNRSYKRDALLLSIKCSSSTGFDNSNAVNSNVVVKEKSVSVILLAGGQGKRMKLCFWLRDVPKISLSLFLFCGVLEYEESIDVDLRFAIPGKERQDSVYSGLQEIDVNSELVCIHDSARPLVNTEDVEKVLKDGSAVGAAVLGVPAKATIKEVIKPELLKKGFELVKSEGLEVTDDVSIVEYLKHPVYVSQGSYTNIKVTTPDDLLLAERILSEDS”: the protein production result is “failed”.
